Measurements taken from patent US20250388637A1.

Biological target: Recombinant human PDGF-B (human) (UniProt P01127)

How did the inhibition of PDGF-B stimulated PDGFR-β phosphorylation, BHK-21/PDGFR-β cells turn out when MBP-GCN4-Prodomain was run?
The inhibition of PDGF-B stimulated PDGFR-β phosphorylation, BHK-21/PDGFR-β cells was 16%.
